Assay results published in patent publication US20110262525A1, “METHODS OF TREATMENT” (SCHERING CORPORATION, priority 2006, published 2011).
Marks after values point to notes of the source that are not given here.

What was measured:
[1] = tested on: Human melanoma cells (A375-SM); test: Cell-Titer Glo assay, A375-SM melanoma; type: cell-based; conditions: 0.000256-100 nM antibody
[2] = tested on: SK-NEP-1 xenograft (Ewings); test: PPTP in vivo xenograft SK-NEP-1; conditions: SK-NEP-1 (Ewings) xenograft, 0.5 mg per mouse ip twice weekly for four weeks
Description: (§1) The PPTP includes a molecularly characterized in vitro panel of cell lines (n=27) and in vivo panel of xenografts (n=61) representing most of the common types of childhood solid tumors and childhood ALL (acute lymphoblastic leukemia). LCF/HCA anti-IGF1R antibody was tested against the PPTP in vitro panel at concentrations ranging from 0.01 nM to 100 nM; and was tested against the PPTP in vivo panel at a dose of 0.5 mg per mouse administered twice weekly for four weeks via intraperitoneal injection. Three measures of antitumor activity were used: 1) response criteria modeled after the clinical setting; 2) treated-to-control (T/C) tumor volume at day 21; and 3) a time to event (4-fold increase in tumor volume) measure based on the median EFS of treated and control lines (intermediate activity required EFS (event-free survival) T/C>2, and high activity additionally required a net reduction in median tumor volume at the end of the experiment).
(§2) Stage 1 testing involved testing an agent across the entire PPTP panel of childhood cancer xenograft lines at its maximum tolerated dose (MTD) or at a dose selected based on PK/PD (pharmacokinetic/pharmacodynamic) studies using adult preclinical models.
(§3) In vivo solid tumor testing: For each xenograft line, 10 mice bearing subcutaneous (SC) tumors initiated treatment when the tumors were between 0.2-0.5 cm^3 in volume. Two perpendicular tumor diameters were measured at once weekly intervals with digital vernier calipers. Assuming tumors to be spherical, volumes were calculated from the formula (π/6)×d3, where d represented the mean diameter.
(§4) Drug: LCF/HCA was dissolved in 20mM sodium acetate pH 5 buffer containing 150 mM sodium chloride, and administered intraperitoneally twice weekly for 4 consecutive weeks at a dose of 0.5 mg per animal. […]
(§5) Median Group Response: Each individual mouse in each treatment group was assigned a response score (see Tables above) and a median score for the treatment group was calculated and then each treatment group was assigned an overall response according to the table below. […]

[3] = tested on: squamous cell carcinoma cell line SCC 15; test: Cell-Titer Glo proliferation assay, SCC15; type: cell-based, human; conditions: 0.000256-100 nM antibody, 96 hours
Description: Cell proliferation was assayed using a Cell-Titer Glo assay (Promega Corp.; Madison, Wis.). A cell-titer glo assay generates a “glow” luminescent signal in the presence of ATP from viable cells, which can be detected with a plate reader luminometer or CCD imaging device.
In this assay, squamous cell carcinoma cells, SCC9, SCC25 and SCC15, were trypsinized, counted and resuspended at 25,000 cells/ml in 10% HI-FBS RPMI containing NEAA, L-Glu, MEM Vitamins and PS. […] (2500 cells) were added to each well BD Falcon 96 well black, clear bottom TC treated plate. Cells were allowed to attach and spread overnight at 37° C. Then, 10% RPMI medium was replaced with […] 2% RPMI, containing the LCF/HCA antibody at the appropriate concentration, the following day. The anti-IGF1R antibody concentrations used in each experiment were 100 nM, 20 nM, 5 nM, 0.8 nM, 0.16 nM, 0.032 nM, 0.0064 nM, 0.00128 nM, and 0.000256 nM. All treatments were prepared in 2% RPMI at 20× concentration and serial diluted. Every test point was prepared in triplicate on separate assay plates. As mentioned above, cell proliferation was measured using the CellTiter-Glo Luminescent Cell Viability Assay (Promega) at 96 hours post treatment. Luminescence was detected on a Wallac 420 Plate Reader with stacker.

[4] = tested on: SCC15 human squamous cell carcinoma tumor cells; test: SCC15 squamous cell carcinoma xenograft in SCID mice; type: in vivo, mouse; conditions: 0.1 mg/injection ip two times per week, seven times starting on day 10
Description: Immune-deficient SCID mice (strain SCID) were inoculated with SCC15 human squamous cell carcinoma tumor cells in the right flank, subcutaneously, along with Matrigel (1:1 cells:gel). In these experiments, 5×10^6 cells/mouse in a 1:1 mix with regular matrigel were inoculated. The LCF/HCA anti-IGF1R antibody was inoculated intraperitoneally (ip) (0.1 mg/injection). Mice were dosed with the antibody two times per week, by intraperitoneal injection, seven times starting on day 10 with the last dose on day 31. Tumor size was measured with calipers and the data was entered into the labcat program. Mice were grouped with average size of 100 mm^3. Tumor size and body weight were measured twice weekly.

[5] = tested on: ALL-4 xenograft (ALL B-precursor); test: PPTP in vivo leukemia xenograft ALL-4; conditions: ALL-4 (ALL B-precursor) xenograft; 0.5 mg per mouse ip twice weekly for four weeks
Description: The PPTP includes a molecularly characterized in vitro panel of cell lines (n=27) and in vivo panel of xenografts (n=61) representing most of the common types of childhood solid tumors and childhood ALL (acute lymphoblastic leukemia). LCF/HCA anti-IGF1R antibody was tested against the PPTP in vitro panel at concentrations ranging from 0.01 nM to 100 nM; and was tested against the PPTP in vivo panel at a dose of 0.5 mg per mouse administered twice weekly for four weeks via intraperitoneal injection. […]
In vivo acute lymphoblastic leukemia testing: For each xenograft line, 8 mice were inoculated with 3-5×10^6 mononuclear cells purified from the spleens of secondary recipient mice. Engraftment was monitored weekly by flow cytometry, and treatment was initiated when the proportion of human CD45+ cells in the peripheral blood reached 1%. The proportion of human CD45+ cells in the peripheral blood was monitored weekly throughout the course of treatment. […]
as §5

[6] = tested on: BT-39 xenograft (Glioblastoma); test: PPTP in vivo xenograft BT-39; conditions: BT-39 (Glioblastoma) xenograft, 0.5 mg per mouse ip twice weekly for four weeks
Description: as §1, §2, §3, §4, §5

[7] = tested on: D645 xenograft (Glioblastoma); test: PPTP in vivo xenograft D645; design: key to EFS activity notation (high, intermediate, indeterminate): high (!); intermediate (#); indeterminate (^)
Description: as §1, §2, §3
(§6) Drug: LCF/HCA was dissolved in 20mM sodium acetate pH 5 buffer containing 150 mM sodium chloride, and administered intraperitoneally twice weekly for 4 consecutive weeks at a dose of 0.5 mg per animal. The antibody was provided to each testing site in coded vials for blinded testing according the PPTP's standard operating procedures.
(§7) Median Group Response: Each individual mouse in each treatment group was assigned a response score (see Tables above) and a median score for the treatment group was calculated and then each treatment group was assigned an overall response according to the table below.
(§8) Statistical Methods: Event-free survival (EFS) distributions of each treatment group were compared to the EFS distribution of the respective control group using the exact log rank test. P-values were 2-sided & were not adjusted for multiple comparisons given the exploratory nature of this study. P-values<0.05 were considered to be significant.

[8] = tested on: EW8 xenograft (Ewings); test: PPTP in vivo xenograft EW8
Description: as §1, §2, §3, §4, §5

[9] = tested on: OS-17 xenograft (Osteosarcoma); test: PPTP in vivo xenograft OS-17; conditions: OS-17 (Osteosarcoma) xenograft, 0.5 mg per mouse ip twice weekly for four weeks
Description: as §1, §2, §3, §6, §7, §8

[10] = tested on: D456 xenograft (Glioblastoma); test: PPTP in vivo xenograft D456
Description: as §1, §2, §3, §4, §5

[11] = 0.5 mg per mouse ip twice weekly for four weeks
[12] = day 21, 0.5 mg per mouse ip twice weekly for four weeks

B1: LCF/HCA: fully human anti-IGF1R antibody comprising the mature 19D12/15H12 light chain F (LCF) and mature heavy chain A (HCA) (antibody, V domains shown)
VH: EVQLVQSGGGLVHPGGSLRLSCAASGFTFSSFAMHWVRQAPGKGLEWISVIDTRGATYYADSVKGRFTISRDNAKNSLYLQMNSLRAEDMAVYYCARLGNFYYGMDVWGQGTTVTVSS
VL: EIVLTQVPDFQSVTPKEKVTITCRASQSIGSSLHWYQQKPDQSPKLLIKYASQSLSGVPSRFSGSGSGTDFTLTINSLEAEDAAAYYCHQSSRLPHTFGGGTKVEIKRT
in vitro growth of melanoma cell line [1]: in vitro growth inhibition | EFS T/C [2]: 0.9 | Median Final RTV [2]: >4 | Tumor Volume T/C ([2]; day 21): 1.08 | proliferation of squamous cell carcinoma cell line [3]: inhibited | tumor growth [4]: less than that observed in mice only receiving a control injection without the antibody | EFS T/C [5]: 0.8 | Median Final RTV [5]: >25 | EFS T/C [6]: 1.1 | Median Final RTV [6]: >4 | Tumor Volume T/C ([6]; day 21): 0.87 | EFS T/C [7, 11]: 2.2 | EFS activity notation (high, intermediate, indeterminate) [7, 11]: # | Median Final RTV [7, 11]: >4# | Overall Group Response [7, 11]: PD2 (1 < MS ≦ 3) | Tumor Volume T/C [7, 12]: 0.58 | EFS T/C [8, 11]: 1.5 | Median Final RTV [8, 11]: >4 | Tumor Volume T/C [8, 12]: 0.86 | EFS T/C [9]: 2 | Median Final RTV [9]: >4 | Overall Group Response [9]: PD2 (1 < MS ≦ 3) | Tumor Volume T/C ([9]; day 21): 0.55 | EFS T/C [10, 11]: 1.1 | Median Final RTV [10, 11]: >4 | Tumor Volume T/C [10, 12]: 0.77
